Experimental data as given in patent publication US20220010006A1 (BEIJING HANMI PHARMACEUTICAL, published 2022).

What was measured:
[1] = target: transmembrane TNFα on Jurkat/tmTNFα cells; test: cell-based or functional assay
mouse IL-17A = target: T1, mouse IL-17A (mouse, UniProt Q62386 26-158); test: ELISA, plate-coated antigen 1 µg/mL, anti-human IgG-HRP
T1 construct: also called recombinant mouse IL-17A
T1 sequence (looked up): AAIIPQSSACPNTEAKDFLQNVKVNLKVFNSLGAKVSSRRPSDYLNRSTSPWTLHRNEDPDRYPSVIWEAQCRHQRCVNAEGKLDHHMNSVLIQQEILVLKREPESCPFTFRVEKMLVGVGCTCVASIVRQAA
Description: (§1) Detailed procedures are as follows: the recombinant mouse TNFα, rat TNFα, mouse IL-17A and rat IL-17A (all purchased from Sino Biological, P. R. China) were coated on wells of a 96-well high-adsorption ELISA plate using a carbonate buffer solution of pH 9.6 at a coating concentration of 1 μg/mL and in a coating amount of 100 μL per well. The coating was performed at 4° C. overnight. The wells were washed with PBST 5 times. The wells were blocked with 300 μL per well of PBST containing 1% BSA, and incubated for 1 hour at 25° C., and washed with PBST 5 times. […] The wells were washed with PBST 5 times. Then, horseradish peroxidase-labeled anti-human IgG antibody (Chemicon, cat #AP 309P) 1:10000 diluted in PBST containing 1% BSA was added in an amount of 100 μL per well, and incubated at 25° C. for 1 hour. The wells were washed with PBST 5 times. The chromogenic substrate TMB was added in an amount of 100 μL per well, and color developed at room temperature for 10 minutes. Color development was terminated by adding 1M H₂SO₄ in an amount of 100 μL per well. The absorbance at 450 nm was read on a microplate reader.

rat IL-17A = target: T2, rat IL-17A (rat, UniProt Q61453 18-150, limits assumed); test: as above
T2 construct: also called recombinant rat IL-17A
T2 sequence (looked up): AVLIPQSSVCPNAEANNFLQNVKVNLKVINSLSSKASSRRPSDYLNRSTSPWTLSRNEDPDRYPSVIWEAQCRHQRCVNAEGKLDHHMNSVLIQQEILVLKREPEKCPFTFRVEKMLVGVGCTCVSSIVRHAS
Description: as §1

Humira® (antibody) showed an Apoptosis ratio (%) of Jurkat/tmTNFα cells, Humira 1 µg/mL [1] of 29.9% and an Apoptosis ratio (%) of Jurkat/tmTNFα cells, Humira 10 µg/mL [1] of 28.2%.

Work on Enbrel® (Fc fusion) yielded an Apoptosis ratio (%) of Jurkat/tmTNFα cells, Enbrel 1 µg/mL [1] of 19% and an Apoptosis ratio (%) of Jurkat/tmTNFα cells, Enbrel 10 µg/mL [1] of 21%.

B1: anti-mouse IL-17A monoclonal antibody (1D10 variable regions) (antibody, V domains shown)
VH: QVQLKESGPGLVQPSQTLSLTCTVSGFSLTNYYVHWVRQPPGKGLEWMGGVWNDGDTSYNSVLRSRLSITRDTSKSQVLLKMSSLQTEDTATYYCAREGREGFVGYYVMDAWGPGASVTVSS
VL: DIQMTQSPSFLSASVGERVTLSCKASQNINKYLDWFQQKLGEAPKLLIYNADNLHTGIPSRFSGSGSFSDFILTISSLQPEDDATYFCLQRESWPYTFGAGTKLELK
notes: Parental control of BH1654; variable regions from U.S. Pat. No. 7,846,443, 1D10; also called The anti-mouse IL-17A monoclonal antibody; anti-mouse IL-17A mAb
B1 showed an EC50 (mouse IL-17A) of 0.027 nM and an EC50 (rat IL-17A) of 0.032 nM.
